For this experiment, the target named is Arabidopsis thaliana transthyretin-like protein (TTL), 311-residue cytoplasmic isoform (Arabidopsis thaliana). Description: SEC + other: sucrose density gradient rate zonal ultracentrifugation; Siegel and Monty method: Stokes radius from analytical gel filtration (Superose 12 10/300, 0.5 ml/min) and sedimentation coefficient from 5 to 20% sucrose gradients (25 h 15 min, 260800 g, SW41 Ti), both in buffer C (150 mM NaCl, EDTA, 20 mM Tris-HCl, pH 8.0); native mass 137.3 kDa against a subunit of 36.6 kDa. Background: Size exclusion chromatography separates by hydrodynamic size, large species first.

Usually stoichiometry N stands for the number of molecules, sites or subunits per partner or assembly. With “Arabidopsis thaliana transthyretin-like protein (TTL), 311-residue cytoplasmic isoform (enzyme)”, the stoichiometry N amounted to 4.

The values are drawn from article PMC2834698.
